# B1: murine mAb 4.25B10.15 (antibody, IgG1, V domains shown)
# VH: QVQLQQSGAELVRPGTSVKVSCKASGYAFTNYLIEWVKQRPGQGLEWIGVINPGSGGTNYNEKFEAKATLTADKSSSTAYMQLSSLTSDDSAVYFCARHGSSYWYFDVWGAGTTVTVSS
# VL: DIVMTQSPATLSVTPGDRVSLSCRASQSISDYLHWYQQKSHESPRLLIKYASQSISGIPSRFSGSGSGSDFTLSINSVEPEDVGVYYCQNGHSFPYTFGGGTKLEIK
# notes: also called anti-CI idiotypic antibody; anti-CI anti-ID mAb
# Experiments:
# [1] = target: T1, anti-Complex I antibody (anti-HCMV antibody); assay: anti-CI clinical PK ELISA standard curve; anti-CI 0.313 ug/mL in 0.5% human serum pool; against background
# T1 construct: also called anti-CI; anti-CI antibody
# Procedure: (§1) Microtiter plates are coated overnight at 2-8° C. with 100 μl per well of 0.75 μg/ml anti-CI idiotypic antibody (in 0.05 M sodium carbonate buffer, pH 9.6±0.1). The plates are washed three times with 400 μl per well per cycle of wash buffer. 200 μl per well of blocking buffer (PBS/0.5% BSA/0.05% polysorbate 20/0.05% ProClin 300, pH 7.4±0.1) is added, and the plates are incubated at room temperature with shaking for 1-3 hours. Standard curves are prepared with standard/sample diluent (assay diluent with 0.5% normal pooled human serum; assay diluent is composed of PBS/0.5% BSA/0.05% polysorbate-20/0.35 M NaCl/0.25% CHAPS/5mM EDTA/0.05% ProClin 300, pH 7.4±0.1). The plates are washed three times with 400 μl per well per cycle of wash buffer. Diluted standards, controls and samples are added to plates at 100 μl per well, in duplicate. The plates are incubated at room temperature with shaking for 2 hours +10 minutes. The plates arc washed four times with 400 μl per well per cycle of wash buffer. HRP conjugates diluted in conjugate buffer (PBS/0.5% BSA/0.05% polysorbate 20/0.05% ProClin 300, pH 7.4±0.1) are added at 100 μl per well. […] The plates are read using a 450 nm read wavelength and a 620 or 630 nm reference wavelength. […]
# [2] = target: T1, anti-Complex I antibody (anti-HCMV …); assay: anti-CI clinical PK ELISA; coat 4.25B10.15 1 ug/mL; 8G8 1 ug/mL; against unspiked human serum
# Procedure: as §1, with “The” for “Microtiter plates are coated overnight at 2-8° C. with 100 μl per well of 0.75 μg/ml anti-CI idiotypic antibody (in 0.05 M sodium carbonate buffer, pH 9.6±0.1). The”, “well. The plates are incubated at room temperature with shaking for 1 hour±5 minutes, following which the plates are washed four times with 400 μl per well per cycle of wash buffer.” for “well.”
# [3] = target: T1, anti-Complex I antibody (anti-HCMV …); assay: anti-CI clinical PK ELISA; coat 4.25B10.15 1 ug/mL; 8G8 8 ug/mL; against unspiked human serum
# Procedure: as §1, with “The” for “Microtiter plates are coated overnight at 2-8° C. with 100 μl per well of 0.75 μg/ml anti-CI idiotypic antibody (in 0.05 M sodium carbonate buffer, pH 9.6±0.1). The”, “well. The plates are incubated at room temperature with shaking for 1 hour±5 minutes, following which the plates are washed four times with 400 μl per well per cycle of wash buffer.” for “well.”
# [4] = target: T1, anti-Complex I antibody (anti-HCMV …); assay: anti-CI clinical PK ELISA; coat 4.25B10.15 0.75 ug/mL; 8G8 0.25 ug/mL; against unspiked human serum
# Procedure: as §1
# [5] = target: T1, anti-Complex I antibody (anti-HCMV …); assay: anti-CI clinical PK ELISA; coat 4.25B10.15 0.75 ug/mL; 8G8 0.125 ug/mL; against unspiked human serum
# Procedure: as §1
# [6] = target: T1, anti-Complex I antibody (anti-HCMV …); assay: anti-CI clinical PK ELISA; coat 4.25B10.15 0.5 ug/mL; 8G8 8 ug/mL; against unspiked human serum
# Procedure: as §1, with “The” for “Microtiter plates are coated overnight at 2-8° C. with 100 μl per well of 0.75 μg/ml anti-CI idiotypic antibody (in 0.05 M sodium carbonate buffer, pH 9.6±0.1). The”, “well. The plates are incubated at room temperature with shaking for 1 hour±5 minutes, following which the plates are washed four times with 400 μl per well per cycle of wash buffer.” for “well.”
# [7] = target: T1, anti-Complex I antibody (anti-HCMV …); assay: anti-CI clinical PK ELISA; coat 4.25B10.15 0.5 ug/mL; 8G8 4 ug/mL; against unspiked human serum
# Procedure: as §1, with “The” for “Microtiter plates are coated overnight at 2-8° C. with 100 μl per well of 0.75 μg/ml anti-CI idiotypic antibody (in 0.05 M sodium carbonate buffer, pH 9.6±0.1). The”, “well. The plates are incubated at room temperature with shaking for 1 hour±5 minutes, following which the plates are washed four times with 400 μl per well per cycle of wash buffer.” for “well.”
# [8] = target: T1, anti-Complex I antibody (anti-HCMV …); assay: anti-CI clinical PK ELISA standard curve; anti-CI 20 ug/mL in 0.5% human serum pool; against background
# Procedure: as §1
# [9] = target: T1, anti-Complex I antibody (anti-HCMV …); assay: anti-CI clinical PK ELISA; coat 4.25B10.15 1 ug/mL; 8G8 0.5 ug/mL; against unspiked human serum
# Procedure: as §1, with “The” for “Microtiter plates are coated overnight at 2-8° C. with 100 μl per well of 0.75 μg/ml anti-CI idiotypic antibody (in 0.05 M sodium carbonate buffer, pH 9.6±0.1). The”, “well. The plates are incubated at room temperature with shaking for 1 hour±5 minutes, following which the plates are washed four times with 400 μl per well per cycle of wash buffer.” for “well.”
# [10] = target: T1, anti-Complex I antibody (anti-HCMV …); assay: Biacore
# [11] = target: T1, anti-Complex I antibody (anti-HCMV …); assay: anti-CI clinical PK ELISA standard curve; anti-CI 0.625 ug/mL in 0.5% human serum pool; against background
# Procedure: as §1
# [12] = target: T1, anti-Complex I antibody (anti-HCMV …); assay: anti-CI clinical PK ELISA; coat 4.25B10.15 0.5 ug/mL; 8G8 0.5 ug/mL; against unspiked human serum
# Procedure: as §1, with “The” for “Microtiter plates are coated overnight at 2-8° C. with 100 μl per well of 0.75 μg/ml anti-CI idiotypic antibody (in 0.05 M sodium carbonate buffer, pH 9.6±0.1). The”, “well. The plates are incubated at room temperature with shaking for 1 hour±5 minutes, following which the plates are washed four times with 400 μl per well per cycle of wash buffer.” for “well.”
# [13] = target: T1, anti-Complex I antibody (anti-HCMV …); assay: anti-CI clinical PK ELISA standard curve; anti-CI 10 ug/mL in 0.5% human serum pool; against background
# Procedure: as §1
# [14] = target: T1, anti-Complex I antibody (anti-HCMV …); assay: anti-CI clinical PK ELISA; coat 4.25B10.15 1 ug/mL; 8G8 0.125 ug/mL; against unspiked human serum
# Procedure: as §1, with “The” for “Microtiter plates are coated overnight at 2-8° C. with 100 μl per well of 0.75 μg/ml anti-CI idiotypic antibody (in 0.05 M sodium carbonate buffer, pH 9.6±0.1). The”, “well. The plates are incubated at room temperature with shaking for 1 hour±5 minutes, following which the plates are washed four times with 400 μl per well per cycle of wash buffer.” for “well.”
# [15] = target: T1, anti-Complex I antibody (anti-HCMV …); assay: anti-CI clinical PK ELISA; coat 4.25B10.15 1 ug/mL; 8G8 16 ug/mL; against unspiked human serum
# Procedure: as §1, with “The” for “Microtiter plates are coated overnight at 2-8° C. with 100 μl per well of 0.75 μg/ml anti-CI idiotypic antibody (in 0.05 M sodium carbonate buffer, pH 9.6±0.1). The”, “well. The plates are incubated at room temperature with shaking for 1 hour±5 minutes, following which the plates are washed four times with 400 μl per well per cycle of wash buffer.” for “well.”
# [16] = target: T1, anti-Complex I antibody (anti-HCMV …); assay: anti-CI clinical PK ELISA; coat 4.25B10.15 0.75 ug/mL; 8G8 16 ug/mL; against unspiked human serum
# Procedure: as §1
# [17] = target: T1, anti-Complex I antibody (anti-HCMV …); assay: anti-CI clinical PK ELISA standard curve; anti-CI 1.25 ug/mL in 0.5% human serum pool; against background
# Procedure: as §1
# [18] = target: T1, anti-Complex I antibody (anti-HCMV …); assay: anti-CI clinical PK ELISA; coat 4.25B10.15 0.5 ug/mL; 8G8 0.25 ug/mL; against unspiked human serum
# Procedure: as §1, with “The” for “Microtiter plates are coated overnight at 2-8° C. with 100 μl per well of 0.75 μg/ml anti-CI idiotypic antibody (in 0.05 M sodium carbonate buffer, pH 9.6±0.1). The”, “well. The plates are incubated at room temperature with shaking for 1 hour±5 minutes, following which the plates are washed four times with 400 μl per well per cycle of wash buffer.” for “well.”
# [19] = target: T1, anti-Complex I antibody (anti-HCMV …); assay: anti-CI clinical PK ELISA; coat 4.25B10.15 0.5 ug/mL; 8G8 16 ug/mL; against unspiked human serum
# Procedure: as §1, with “The” for “Microtiter plates are coated overnight at 2-8° C. with 100 μl per well of 0.75 μg/ml anti-CI idiotypic antibody (in 0.05 M sodium carbonate buffer, pH 9.6±0.1). The”, “well. The plates are incubated at room temperature with shaking for 1 hour±5 minutes, following which the plates are washed four times with 400 μl per well per cycle of wash buffer.” for “well.”
# [20] = target: T1, anti-Complex I antibody (anti-HCMV …); assay: anti-CI clinical PK ELISA; coat 4.25B10.15 0.75 ug/mL; 8G8 1 ug/mL; against unspiked human serum
# Procedure: as §1
# [21] = target: T1, anti-Complex I antibody (anti-HCMV …); assay: anti-CI clinical PK ELISA; coat 4.25B10.15 0.5 ug/mL; 8G8 1 ug/mL; against unspiked human serum
# Procedure: as §1, with “The” for “Microtiter plates are coated overnight at 2-8° C. with 100 μl per well of 0.75 μg/ml anti-CI idiotypic antibody (in 0.05 M sodium carbonate buffer, pH 9.6±0.1). The”, “well. The plates are incubated at room temperature with shaking for 1 hour±5 minutes, following which the plates are washed four times with 400 μl per well per cycle of wash buffer.” for “well.”
# [22] = target: T1, anti-Complex I antibody (anti-HCMV …); assay: anti-CI clinical PK ELISA; coat 4.25B10.15 0.75 ug/mL; 8G8 4 ug/mL; against unspiked human serum
# Procedure: as §1
# [23] = target: T1, anti-Complex I antibody (anti-HCMV …); assay: anti-CI clinical PK ELISA; coat 4.25B10.15 1 ug/mL; 8G8 4 ug/mL; against unspiked human serum
# Procedure: as §1, with “The” for “Microtiter plates are coated overnight at 2-8° C. with 100 μl per well of 0.75 μg/ml anti-CI idiotypic antibody (in 0.05 M sodium carbonate buffer, pH 9.6±0.1). The”, “well. The plates are incubated at room temperature with shaking for 1 hour±5 minutes, following which the plates are washed four times with 400 μl per well per cycle of wash buffer.” for “well.”
# [24] = target: T1, anti-Complex I antibody (anti-HCMV …); assay: anti-CI clinical PK ELISA; coat 4.25B10.15 0.75 ug/mL; 8G8 8 ug/mL; against unspiked human serum
# Procedure: as §1
# [25] = target: T1, anti-Complex I antibody (anti-HCMV …); assay: anti-CI clinical PK ELISA; coat 4.25B10.15 0.5 ug/mL; 8G8 0.125 ug/mL; against unspiked human serum
# Procedure: as §1, with “The” for “Microtiter plates are coated overnight at 2-8° C. with 100 μl per well of 0.75 μg/ml anti-CI idiotypic antibody (in 0.05 M sodium carbonate buffer, pH 9.6±0.1). The”, “well. The plates are incubated at room temperature with shaking for 1 hour±5 minutes, following which the plates are washed four times with 400 μl per well per cycle of wash buffer.” for “well.”
# [26] = target: T1, anti-Complex I antibody (anti-HCMV …); assay: anti-CI clinical PK ELISA; coat 4.25B10.15 1 ug/mL; 8G8 0.25 ug/mL; against unspiked human serum
# Procedure: as §1, with “The” for “Microtiter plates are coated overnight at 2-8° C. with 100 μl per well of 0.75 μg/ml anti-CI idiotypic antibody (in 0.05 M sodium carbonate buffer, pH 9.6±0.1). The”, “well. The plates are incubated at room temperature with shaking for 1 hour±5 minutes, following which the plates are washed four times with 400 μl per well per cycle of wash buffer.” for “well.”
# [27] = target: T1, anti-Complex I antibody (anti-HCMV …); assay: anti-CI clinical PK ELISA standard curve; anti-CI 2.5 ug/mL in 0.5% human serum pool; against background
# Procedure: as §1
# [28] = target: T1, anti-Complex I antibody (anti-HCMV …); assay: anti-CI clinical PK ELISA; coat 4.25B10.15 0.75 ug/mL; 8G8 0.5 ug/mL; against unspiked human serum
# Procedure: as §1
# [29] = target: T1, anti-Complex I antibody (anti-HCMV …); assay: anti-CI clinical PK ELISA standard curve; anti-CI 0.156 ug/mL in 0.5% human serum pool; against background
# Procedure: as §1
# [30] = target: T1, anti-Complex I antibody (anti-HCMV …); assay: anti-CI clinical PK ELISA standard curve; anti-CI 5 ug/mL in 0.5% human serum pool; against background
# Procedure: as §1
# T1 sequence (VH, as listed by the source, chain 1 of 2): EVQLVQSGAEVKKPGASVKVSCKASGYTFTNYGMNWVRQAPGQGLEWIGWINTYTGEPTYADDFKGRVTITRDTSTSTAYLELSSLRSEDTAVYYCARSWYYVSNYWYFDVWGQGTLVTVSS
# T1 sequence (VL, as listed by the source, chain 2 of 2): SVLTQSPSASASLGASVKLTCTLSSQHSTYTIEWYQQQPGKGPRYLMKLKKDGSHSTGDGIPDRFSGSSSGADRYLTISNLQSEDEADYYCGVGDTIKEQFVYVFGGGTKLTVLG
binder,measurement,setting,value
B1,S/B ratio,[1],2 ratio
same,Signal/bkgd ratio,[2],4.4 ratio
same,Signal/bkgd ratio,[3],13 ratio
same,Signal/bkgd ratio,[4],2.1 ratio
same,Signal/bkgd ratio,[5],1.5 ratio
same,Signal/bkgd ratio,[6],12.3 ratio
same,Signal/bkgd ratio,[7],10.4 ratio
same,S/B ratio,[8],22.3 ratio
same,Signal/bkgd ratio,[9],2.7 ratio
same,Kd,[10],4.7 nM
same,S/B ratio,[11],3 ratio
same,Signal/bkgd ratio,[12],2.7 ratio
same,S/B ratio,[13],19.6 ratio
same,Signal/bkgd ratio,[14],1.4 ratio
same,Signal/bkgd ratio,[15],13.8 ratio
same,Signal/bkgd ratio,[16],19.1 ratio
same,S/B ratio,[17],4.9 ratio
same,Signal/bkgd ratio,[18],1.8 ratio
same,Signal/bkgd ratio,[19],14.7 ratio
same,Signal/bkgd ratio,[20],5.3 ratio
same,Signal/bkgd ratio,[21],4.3 ratio
same,Signal/bkgd ratio,[22],13.3 ratio
same,Signal/bkgd ratio,[23],10 ratio
same,Signal/bkgd ratio,[24],16.5 ratio
same,Signal/bkgd ratio,[25],1.4 ratio
same,Signal/bkgd ratio,[26],1.9 ratio
same,S/B ratio,[27],8.4 ratio
same,Signal/bkgd ratio,[28],3.2 ratio
same,S/B ratio,[29],1.5 ratio
same,S/B ratio,[30],13.6 ratio

# Reference: US20160002355A1 (Genentech, published 2016)
